In US20210301005A1 (Genentech, published 2021):
Read-outs that look alike come from different tables or passages of the source.

Assays:
[1] = molecular target: T1, human TGFβ3, mature dimeric form (human, UniProt P10600 301-412); assay: SPR
T1 construct: Peprotech, expressed in E. coli; also called TGFb3
T1 sequence: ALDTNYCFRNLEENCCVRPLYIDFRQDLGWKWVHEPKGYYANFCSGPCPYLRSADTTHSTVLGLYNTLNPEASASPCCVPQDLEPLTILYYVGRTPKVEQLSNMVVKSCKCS

[2] = molecular target: T2, human TGFβ2, mature receptor-binding domain (human, UniProt P09858 303-414 (pig entry), The mature TGFβ2 is a disulfide-linked homodimer of this 112-residue chain. The 4A11 epitope spans both monomers (p-1207).); assay: SPR
T2 construct: Peprotech; also called TGFb2
T2 sequence: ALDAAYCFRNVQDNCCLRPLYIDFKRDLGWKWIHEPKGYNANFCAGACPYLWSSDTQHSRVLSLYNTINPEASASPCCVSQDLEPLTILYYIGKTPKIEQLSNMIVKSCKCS

[3] = molecular target: T1, human TGFβ3, mature dimeric form; assay: cell-based or functional assay
[4] = molecular target: T3, human TGFβ1, mature receptor-binding domain (human, UniProt P01137 279-390); assay: cell-based or functional assay
[5] = molecular target: T2, human TGFβ2, mature receptor-binding …; assay: cell-based or functional assay
[6] = molecular target: T1, human TGFβ3, mature dimeric form; assay: BIAcore T200
Procedure: (§1) For binding affinity determinations of all humanized 2A10 antibodies, Surface Plasmon Resonance (SPR) measurement with a BIAcore™-T200 instrument was used. Briefly, series S CM5 biosensor chip with protein A was first applied to capture each humanized 2A10 variant to achieve approximately 100 response units (RU) on each flow cell, following by injection of 3-fold serial dilutions of human TGFβ1, TGFβ2 or TGFβ3 (0.02 nM to 5 nM) in HBS-EP buffer (0.01M HEPES pH 7.4, 0.15M NaCl, 3 mM EDTA and 0.05% v/v surfactant P20) at 25° C. with a flow rate of 50 μl/min for kinetics measurement. Association rates (ko.) and dissociation rates (koff) were calculated using a simple one-to-one Langmuir binding model (BIAcore T200 evaluation software version 2.0) to determine the equilibrium dissociation constant (KD), which was calculated as the ratio koff/kₒₙ.
(§2) Binding affinity determinations of all humanized 4A11 antibodies were performed using SPR measurement with a BIAcore™-T200 instrument, as described above in Example 6 ([…]).

[7] = molecular target: T3, human TGFβ1, mature receptor-binding …; assay: BIAcore T200
Procedure: as §1, §2

[8] = molecular target: T2, human TGFβ2, mature receptor-binding …; assay: BIAcore T200
Procedure: as §1, §2

[9] = molecular target: T1, human TGFβ3, mature dimeric form; assay: cell-based or functional assay; remark: listed apart in the source
[10] = molecular target: T3, human TGFβ1, mature receptor-binding …; assay: cell-based or functional assay; remark: listed apart in the source
[11] = molecular target: T2, human TGFβ2, mature receptor-binding …; assay: cell-based or functional assay; remark: listed apart in the source
[12] = molecular target: T1, human TGFβ3, mature dimeric form; assay: cell-based or functional assay; remark: listed apart in the source
[13] = molecular target: T3, human TGFβ1, mature receptor-binding …; assay: cell-based or functional assay; remark: listed apart in the source
[14] = molecular target: T2, human TGFβ2, mature receptor-binding …; assay: cell-based or functional assay; remark: listed apart in the source
[15] = molecular target: T4, mouse TGFβ2, mature peptide (mouse, UniProt P27090 303-414); assay: cell-based or functional assay
T4 sequence (looked up): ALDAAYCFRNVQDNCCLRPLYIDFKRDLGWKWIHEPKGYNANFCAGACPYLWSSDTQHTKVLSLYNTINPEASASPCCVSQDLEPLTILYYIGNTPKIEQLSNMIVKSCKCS

[16] = molecular target: T2, human TGFβ2, mature receptor-binding …; assay: cell-based or functional assay; remark: listed apart in the source
[17] = molecular target: T1, human TGFβ3, mature dimeric form; assay: BIAcore T200; remark: listed apart in the source
Procedure: as §1, §2

[18] = molecular target: T2, human TGFβ2, mature receptor-binding …; assay: BIAcore T200; remark: listed apart in the source
Procedure: as §1, §2

[19] = molecular target: T1, human TGFβ3, mature dimeric form; assay: cell-based or functional assay; remark: listed apart in the source
[20] = molecular target: T2, human TGFβ2, mature receptor-binding …; assay: cell-based or functional assay; remark: listed apart in the source
[21] = molecular target: T4, mouse TGFβ2, mature peptide; assay: Biacore SPR
[22] = molecular target: T2, human TGFβ2, mature receptor-binding …; assay: Biacore SPR

T3 sequence (P01137 279-390 limits assumed): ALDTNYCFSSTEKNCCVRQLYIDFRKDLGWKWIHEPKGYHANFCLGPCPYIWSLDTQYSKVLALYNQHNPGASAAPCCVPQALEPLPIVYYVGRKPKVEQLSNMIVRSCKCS

B1: 4A11 (antibody, V domains shown)
VH: QSLEESGGRLVTPGTPLTLTCTVSGFSLSSYTVNWVRQAPGKGLEWIGYISYGGSAYYASWANGRFTISKTSATVDLKITSPTTEDTATYFCARHMQVGGAPTGSMAAFDPWGPGTLVTVSS
VL: AAVLTQTPSPVSAAVGGTVSISCQSSQSVYNNNYLSWFQQKPGQPPKLLIYGASTLTSGVPSRFKGSGSGTQFTLTISDVQCDDAATYYCAGGYSGSSDKYAFGGGTEVVVKG
notes: anti-TGFβ2/3, recombinant rabbit monoclonal; some paragraphs print the H/L pair as 32/33; also called Rb1.4A11; Rbt 4A11
- Kd [1]: 0.005 nM
- Kd [2]: 0.008 nM
- Blocking IC50 [3]: 0.03 nM
- Blocking IC50 [4]: > 500 nM
- Blocking IC50 [5]: 0.25 nM
- Kd [6]: ≤ 0.0012 nM
- Kd [7]: > 5 nM
- Kd [8]: 0.0016 nM
- HEKBlue TGFβ blocking IC50 [9]: 0.06 nM
- HEKBlue TGFβ blocking IC50 [10]: > 200 nM
- HEKBlue TGFβ blocking IC50 [11]: 0.09 nM
- HEKBlue TGFβ blocking IC50 [12]: 0.06 nM
- HEKBlue TGFβ blocking IC50 [13]: > 200 nM
- HEKBlue TGFβ blocking IC50 [14]: 0.09 nM
- IC50 (read off the curve) [15]: ~0.07 nM
- IC50 (read off the curve) [16]: ~0.06 nM
- Kd [17]: ≤ 0.0012 nM
- Kd [18]: 0.0016 nM
- cell-based IC50 [19]: < 0.25 nM
- cell-based IC50 [20]: < 0.25 nM
- Kd [21]: < 0.002 nM
- Kd [22]: 0.008 nM
